The supplement of paper PMC9876800

System: peptide library, one residue held at a place counted from the S/T acceptor
Assay: relative phosphorylation of the sub-library (ratio to the mean residue at this position); higher = residue favoured
Summary of the method: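 Each biotinylated degenerate peptide sub-library fixed one residue at one position around a central Ser/Thr and was incubated with a purified recombinant kinase, a human or orthologue construct, in 384-well plates. The 90 min reactions, under kinase-specific conditions, contained 50 μM peptide and 50 μM ATP spiked with γ-32P-ATP. Phosphorylation was read by phosphorimaging spots on streptavidin membranes and quantifying them by densitometry. Relative sub-library phosphorylation expresses each value as a ratio to the mean residue at that position.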

Chain of TLK2, construct: aa388-end, human (Q86UE8 388-772, looked up): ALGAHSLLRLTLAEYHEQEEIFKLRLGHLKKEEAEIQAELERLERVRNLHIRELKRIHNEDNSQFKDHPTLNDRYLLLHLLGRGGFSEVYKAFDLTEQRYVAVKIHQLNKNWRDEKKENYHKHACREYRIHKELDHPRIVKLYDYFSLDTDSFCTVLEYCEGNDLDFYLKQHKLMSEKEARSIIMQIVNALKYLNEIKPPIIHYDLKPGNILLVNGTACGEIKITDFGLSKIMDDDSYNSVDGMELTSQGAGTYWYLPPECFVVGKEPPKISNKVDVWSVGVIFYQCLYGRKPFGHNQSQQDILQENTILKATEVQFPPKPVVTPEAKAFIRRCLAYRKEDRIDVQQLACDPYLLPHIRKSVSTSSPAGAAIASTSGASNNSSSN
Chain of TAOK3, construct: Full length with a 14aa C-terminal extension from Gateway cloning, human (Q9H2K8 whole entry, looked up): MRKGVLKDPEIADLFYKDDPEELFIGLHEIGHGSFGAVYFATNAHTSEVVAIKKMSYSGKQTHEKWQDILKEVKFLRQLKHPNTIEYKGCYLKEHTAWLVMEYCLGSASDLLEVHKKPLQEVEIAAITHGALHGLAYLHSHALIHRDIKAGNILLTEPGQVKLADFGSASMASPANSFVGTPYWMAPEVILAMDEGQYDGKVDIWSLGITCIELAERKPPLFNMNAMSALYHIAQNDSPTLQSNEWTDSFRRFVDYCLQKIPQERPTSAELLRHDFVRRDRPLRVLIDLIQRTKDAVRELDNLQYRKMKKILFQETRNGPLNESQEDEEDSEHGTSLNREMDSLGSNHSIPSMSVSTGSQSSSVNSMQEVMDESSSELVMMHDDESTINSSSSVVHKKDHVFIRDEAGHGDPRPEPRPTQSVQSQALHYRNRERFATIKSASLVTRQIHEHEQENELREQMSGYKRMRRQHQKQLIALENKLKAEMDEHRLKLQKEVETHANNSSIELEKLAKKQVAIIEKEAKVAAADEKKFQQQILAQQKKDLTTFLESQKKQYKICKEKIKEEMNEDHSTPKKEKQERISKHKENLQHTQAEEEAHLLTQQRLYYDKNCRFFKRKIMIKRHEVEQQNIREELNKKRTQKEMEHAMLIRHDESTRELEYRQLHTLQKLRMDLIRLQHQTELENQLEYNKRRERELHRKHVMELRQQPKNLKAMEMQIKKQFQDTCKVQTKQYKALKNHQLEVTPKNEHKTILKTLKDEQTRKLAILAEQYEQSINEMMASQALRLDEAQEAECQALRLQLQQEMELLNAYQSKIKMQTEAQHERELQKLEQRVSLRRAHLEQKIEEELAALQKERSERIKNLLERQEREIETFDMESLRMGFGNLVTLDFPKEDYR

TAOK3, construct: Full length with a 14aa C-terminal extension from Gateway cloning, human (from UniProt Q9H2K8)
relative phosphorylation
Details	at +1	at +2	at +3	at +4	at -1	at -2	at -3	at -4	at -5
A fixed	0.522	0.851	0.743	0.866	0.788	1.15	0.775	1.01	1.16
D fixed	0.371	0.801	0.592	0.65	0.99	1.03	0.879	1.47	1.59
E fixed	0.343	0.54	0.547	0.658	0.546	0.718	0.916	1.54	1.36
F fixed	1.34	0.424	0.68	0.771	0.709	1.35	0.543	0.663	0.81
G fixed	0.605	0.943	1.38	1.11	2.03	1.43	1.4	1.27	1.17
H fixed	0.973	1.21	1.19	1.18	1.28	0.92	0.95	1.04	1.09
I fixed	1.52	0.593	0.578	0.859	0.3	0.508	0.416	0.497	0.596
K fixed	0.647	2.32	2.11	1.76	1.54	0.836	2.45	1.15	1.35
L fixed	1.63	0.507	0.707	0.681	0.717	0.526	0.445	0.536	0.627
M fixed	1.52	0.612	0.606	0.718	0.911	0.805	0.566	0.682	0.629
N fixed	0.595	1.73	1.08	0.891	1.61	1.15	1.28	1.42	1.23
P fixed	0.551	1.09	1.14	0.945	0.707	1.17	1.23	1.38	0.984
Q fixed	0.685	0.941	0.987	1.04	1.08	0.856	1.12	1.12	0.961
R fixed	0.583	2.5	2.29	1.62	1.37	0.959	1.73	1.11	1.13
V fixed	1.05	0.659	0.558	0.753	0.373	0.541	0.459	0.562	0.634
W fixed	2.79	0.578	0.971	1.19	0.807	0.932	0.832	0.819	0.92
Y fixed	1.28	0.704	0.854	1.31	1.24	2.12	1	0.726	0.781
pThr fixed	0.887	0.729	0.858	0.782	0.588	1.11	1.23	1.49	1.36
pTyr fixed	0.719	0.757	0.752	0.848	2.28	1.3	1.18	1.33	1.47

TLK2, construct: aa388-end, human (from UniProt Q86UE8)
relative phosphorylation
Details	at +1	at +2	at +3	at +4	at -1	at -2	at -3	at -4	at -5
A fixed	0.501	0.95	1.3	1.23	1.13	1.14	1.07	1.1	1.22
D fixed	0.281	1.07	1.01	1.06	0.949	2.24	2	1.67	1.91
E fixed	0.329	0.512	1.33	0.879	0.751	3.21	1.46	1.68	1.45
F fixed	0.533	1.32	1.19	1.26	1.04	0.553	0.674	0.878	0.801
G fixed	0.36	1.69	1.69	1.24	0.72	1.69	1.42	1.27	1.19
H fixed	0.799	1.45	0.932	0.899	1.6	1.05	0.979	1.07	1.05
I fixed	0.995	0.768	0.583	0.843	0.542	0.435	0.531	0.668	0.621
K fixed	0.624	0.451	0.52	0.603	0.95	0.502	0.702	0.703	0.879
L fixed	1.34	0.873	0.654	0.867	0.61	0.418	0.637	0.678	0.663
M fixed	2.11	1.27	0.823	0.913	0.862	0.592	0.77	0.857	0.737
N fixed	2.41	0.671	0.682	0.692	1.29	1.22	1.26	1.19	1.08
P fixed	0.225	1.03	1.66	1.79	0.634	0.77	1.36	1.17	1
Q fixed	2.67	1.19	0.765	0.782	1.23	1.06	0.972	0.852	0.865
R fixed	1.53	0.482	0.483	0.506	0.827	0.499	0.743	0.674	0.814
V fixed	1.06	0.675	0.814	0.944	0.807	0.495	0.584	0.684	0.72
W fixed	0.686	1.62	1.42	1.35	1.58	0.5	0.953	1.06	1.1
Y fixed	0.543	0.974	1.13	1.13	1.48	0.638	0.879	0.803	0.894
pThr fixed	0.552	0.633	1.09	1.41	0.434	0.883	1.29	1.31	1.31
pTyr fixed	0.65	1.52	1.94	1.76	1.4	2.55	1.35	1.36	1.4

TSSK2, construct: Full length, human (from UniProt Q96PF2)
relative phosphorylation
Details	at +1	at +2	at +3	at +4	at -1	at -2	at -3	at -4	at -5
A fixed	0.97	0.852	0.804	0.774	1.18	1.86	1.24	1.3	1.2
D fixed	0.871	0.578	1.44	0.8	0.771	0.379	0.466	0.655	0.247
E fixed	1.25	0.793	0.998	0.629	0.932	0.42	0.671	1.04	0.216
F fixed	1.06	1.27	1.37	1.43	0.685	0.699	0.589	0.583	0.882
G fixed	0.625	0.388	0.688	0.663	0.74	0.939	1.19	1.22	0.439
H fixed	1.05	2.95	1.53	0.822	0.874	0.952	0.933	1.12	0.518
I fixed	0.683	1.3	0.642	1.47	0.673	0.954	0.734	0.816	1.75
K fixed	1.41	0.47	1.04	0.766	1.68	2.3	1.86	1.99	0.569
L fixed	0.92	1.27	0.834	1.98	0.847	0.55	0.67	0.877	3.08
M fixed	0.965	1.1	0.944	1.51	0.893	0.725	0.668	1.19	1.32
N fixed	1.25	0.861	1.49	0.942	0.96	1.17	0.824	0.829	0.393
P fixed	0.143	0.438	0.324	0.846	1.72	0.513	1.27	0.348	1.34
Q fixed	1.31	1.09	0.95	0.882	1.41	1.08	0.935	0.849	0.71
R fixed	1.78	0.574	1.11	0.648	1.49	1.77	2.96	1.85	0.952
V fixed	0.867	1.02	0.677	1.25	0.763	1.47	0.802	0.921	2.15
W fixed	0.789	0.915	1.28	0.941	0.6	0.452	0.598	0.594	0.541
Y fixed	1.06	1.13	0.887	0.646	0.788	0.779	0.587	0.808	0.69
pThr fixed	1.02	0.78	0.485	0.581	0.426	0.262	0.804	0.734	0.503
pTyr fixed	0.925	0.79	0.814	0.556	0.831	0.284	0.641	0.428	0.752
